This note sets out measurements from patent US20140161803A1 (IFOM Fondazione Istituo FIRC di Oncologia Molecolare, priority 2011, published 2014).

The test system of this assay is PC-3 cells. In words: PC3 prostate cancer xenograft tumor growth. As to conditions: 10.0 mg/kg i.p. bi-weekly; s.c. PC-3 xenograft; versus control animals. The format is in vivo, Balb C nu/nu mice. As to the method: Male Balb C nu/nu mice were inoculated with (1×10^6) PC-3 cells through the subcutaneous (s.c.) route. […] Tumors were measured twice weekly, and tumor volume was determined as described in Materials and Methods.
Six-week-old male Balb C nu/nu mice were obtained from Charles River. Before inoculation, PC-3 cells growing in serum-containing medium were washed with phosphate buffered saline (PBS), harvested by trypsinization, and pelleted at 1200 rpm for 7 minutes. Cells (1.0×10^6) were resuspended in 200 μl of PBS with 20% Matrigel. Animals were anesthetized by intraperitoneal (i.p.) injection of Avertin and 1.0×10^6 cells were inoculated subcutaneously (s.c.) using a 26-gauge needle into the right flank of anesthetized mice. […] The animals were monitored twice a week for 7 weeks for tumor development and growth. Tumor volume was determined according to the formula: tumor volume=shorter diameter^2×longer diameter/2. […] Results were analyzed as the mean±SE, and comparisons of the experimental data were analyzed by unpaired, two-tailed, equal variance, t-test.
In this model, one million PC3 cells were inoculated in the right flank of male Balb C nu/nu mice through subcutaneous route.

B1: 13F6: non-inhibitory monoclonal anti-uPAR antibody raised against GFDuPAR-hFc; IgG1 κ (antibody, V domains shown)
VH: ELVKPGASVELSCKASGYTFTSYWMNWVKQRPGRGLEWIGRIAPNSGGTQYSGKFKTKATLTVDKSSSTAYMQLSSLTSEDSAVYYCARGDYFGHFDYWGQGTTLTVS
VL: SLSASLGGKVTITCKASQDINNYIAWYQHKPGKGPRLLIHYTSILQPGIPSRFSGSGSGRDYSFSISNLEPEDIATYYCLQCDNLLTFGAGTKLELK
For B1, the “effect on tumor volume” value is on record as “A similar inhibition was not observed”.
